Where a chain is given by its changes, count along the chain named. Numbers in names are those of the source. Where two headings read alike, the source gives them in different places.

Data set [1] concerns the target GluR6Δ2 F58A mutant ATD (rat) (UniProt P42260). In words: AUC.
The target in data set [2] is KA2 amino terminal domain (ATD), wild type (rat) (UniProt Q63273). In words: AUC.
For data set [3] the target is unchanged. In words: AUC. The source holds these as a separate data set.
Data set [4] deals with GluR6Δ2 ATD (G215N/M217T glycan wedge mutant) (rat) (UniProt P42260). Nature of the data set: AUC.
The data set “SEC-MALS” concerns the molecule itself. In words: SEC-MALS. In general terms: Size exclusion chromatography separates by hydrodynamic size, large species first.
Data set [5] deals with the molecule itself. In words: AUC.
Data set [6] concerns the molecule itself. Nature of the data set: AUC. The source holds these as a separate data set.
Data set [7] deals with the molecule itself. Nature of the data set: AUC. This is another data set of the same source.

As for “KA2 Y57A/E156A mutant ATD (domain or fragment)”, in data set [1], the Kd amounted to 2 µM.

“KA2 Y57A/S165G/T168A mutant ATD (domain or fragment)” gave a Kd in data set [1] of 13 µM.

As to “KA2 amino terminal domain (ATD), wild type (from UniProt Q63273 20-406) (domain or fragment)”, the figures for the Kd in data set [2] and in data set [3] were 410 µM and 350 µM, respectively.

Turning to “KA2 Y57A mutant ATD (domain or fragment)”, the Kd in data set [4] is 0.14 µM; in data set [1], 1.63 µM.

“KA2 Y57A/L163A mutant ATD (domain or fragment)”: the Kd in data set [1] turned out to be 6.7 µM.

B1: GluR6 amino terminal domain (ATD), wild type (domain or fragment, rat)
chain: TTHVLRFGGIFEYVESGPMGAEELAFRFAVNTINRNRTLLPNTTLTYDTQKINLYDSFEASKKACDQLSLGVAAIFGPSHSSSANAVQSICNALGVPHIQTRWKHQVSDNKDSFYVSLYPDFSSLSRAILDLVQFFKWKTVTVVYDDSTGLIRLQELIKAPSRYNLRLKIRQLPADTKDAKPLLKEMKRGKEFHVIFDCSHEMAAGILKQALAMGMMTEYYHYIFTTLDLFALDVEPYRYSGVNMTGFRILNTENTQVSSIIEKWSMERLQAPPKPDSGLLDGFMTTDAALMYDAVHVVSVAVQQFPQMTVSSLQCNRHKPWRFGTRFMSLIKEAHWEGLTGRITFNKTNGLRTDFDLDVISLKEEGLEKIGTWDPASGLNMTESQKGK
modifications: N-linked glycans
In the case of B1, in the data set “SEC-MALS”, the binding result is on record as “binds”.

B2: GluR6Δ1 ATD (A213N/G215S glycan wedge mutant) (domain or fragment, rat)
chain: B1 chain with A213N, G215S
modifications: N-linked glycans, one introduced by the mutations (glycan wedge)
As for B2, in “SEC-MALS”, the “stoichiometry N” value came to 2.

B3: GluR6Δ2 ATD (G215N/M217T glycan wedge mutant) (domain or fragment, rat)
chain: B1 chain with G215N, M217T
modifications: N-linked glycans, one introduced by the mutations (glycan wedge)
Consider B3, for which, in the data set “SEC-MALS”, the “stoichiometry N” value was 2. Moreover, the Kd is 0.35 µM in “AUC [5]” and 0.25 µM in the data set “AUC [6]”.

B4: wt GluR6/KA2 ATD heterodimer (complex, rat)
chain 1: B1 chain
chain 2: VLSSLRMAAILDDQTVCGRGERLALALAREQINGIIEVPAKARVEVDIFELQRDSQYETTDTMCQILPKGVVSVLGPSSSPASASTVSHICGEKEIPHIKVGPEETPRLQYLRFASVSLYPSNEDVSLAVSRILKSFNYPSASLICAKAECLLRLEELVRGFLISKETLSVRMLDDSRDPTPLLKEIRDDKVSTIIIDANASISHLVLRKASELGMTSAFYKYILTTMDFPILHLDGIVEDSSNILGFSMFNTSHPFYPEFVRSLNMSWRENCEASTYPGPALSAALMFDAVHVVVSAVRELNRSQEIGVKPLACTSANIWPHGTSLMNYLRMVEYDGLTGRVEFNSKGQRTNYTLRILEKSRQGHREIGVWYSNRTLAMNATTLDI
modifications: N-linked glycans | N-linked glycans
Turning to B4, in “AUC [7]”, the affinity, expressed as Kd, was 6.2 µM.

As a reminder, the Kd is the free concentration of one partner at which half of the binding sites on the other are occupied at equilibrium, for simple one-to-one binding. The term stoichiometry N denotes the number of molecules, sites or subunits per partner or assembly.

Values taken from publication PMC3145919 (Neuron, 2011).
